Target: Myc-GluK2a (UniProt Q13002)
Test: co-IP; HEK293T cells transfected with FLAG-parkin and Myc-GluK2a or its truncation mutants; 500 ug lysate, Myc, parkin or FLAG antibody overnight at 4 C, Protein A or G agarose, washes with 500 mM NaCl, 1% Triton X-100; also after activation with 10 mM glutamate

Sequence of FLAG-parkin (O60260 whole entry, the tested form may be a part): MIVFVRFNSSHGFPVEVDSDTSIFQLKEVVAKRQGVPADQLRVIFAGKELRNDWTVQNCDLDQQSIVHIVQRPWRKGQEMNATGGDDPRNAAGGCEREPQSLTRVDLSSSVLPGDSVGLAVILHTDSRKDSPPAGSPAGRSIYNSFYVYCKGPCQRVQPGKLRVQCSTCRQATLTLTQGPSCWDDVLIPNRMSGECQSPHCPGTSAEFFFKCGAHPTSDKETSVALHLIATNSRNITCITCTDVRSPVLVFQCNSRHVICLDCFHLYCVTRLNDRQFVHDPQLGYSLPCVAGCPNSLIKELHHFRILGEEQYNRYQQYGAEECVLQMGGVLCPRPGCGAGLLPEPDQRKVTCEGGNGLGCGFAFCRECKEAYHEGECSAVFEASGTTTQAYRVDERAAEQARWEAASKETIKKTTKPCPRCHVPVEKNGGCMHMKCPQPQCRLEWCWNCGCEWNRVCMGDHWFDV
Sequence of UniProt Q13002 (Q13002 32-908): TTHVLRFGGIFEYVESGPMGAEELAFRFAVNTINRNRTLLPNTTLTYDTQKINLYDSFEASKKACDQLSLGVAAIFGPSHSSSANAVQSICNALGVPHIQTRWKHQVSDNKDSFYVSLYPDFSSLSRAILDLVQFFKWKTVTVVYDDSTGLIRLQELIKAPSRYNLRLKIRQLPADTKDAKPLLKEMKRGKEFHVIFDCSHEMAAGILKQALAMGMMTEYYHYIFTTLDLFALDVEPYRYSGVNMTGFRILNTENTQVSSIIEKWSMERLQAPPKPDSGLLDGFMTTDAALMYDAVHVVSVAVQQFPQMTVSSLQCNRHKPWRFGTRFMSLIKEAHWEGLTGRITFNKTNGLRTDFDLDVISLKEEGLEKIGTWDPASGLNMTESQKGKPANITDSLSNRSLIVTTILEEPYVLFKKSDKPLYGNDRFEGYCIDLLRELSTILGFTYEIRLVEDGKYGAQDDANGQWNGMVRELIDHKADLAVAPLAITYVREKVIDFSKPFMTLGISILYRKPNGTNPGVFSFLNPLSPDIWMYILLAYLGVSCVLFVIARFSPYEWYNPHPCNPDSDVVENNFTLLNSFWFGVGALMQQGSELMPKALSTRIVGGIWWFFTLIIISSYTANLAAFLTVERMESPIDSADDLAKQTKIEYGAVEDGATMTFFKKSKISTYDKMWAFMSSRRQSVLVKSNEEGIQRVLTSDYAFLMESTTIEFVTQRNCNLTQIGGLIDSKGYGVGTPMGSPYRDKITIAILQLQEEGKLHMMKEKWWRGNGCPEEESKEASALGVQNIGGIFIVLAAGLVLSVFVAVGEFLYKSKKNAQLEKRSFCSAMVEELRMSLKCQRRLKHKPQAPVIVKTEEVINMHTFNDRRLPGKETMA

co-immunoprecipitation after 10 mM glutamate, relative to untreated (fold of untreated): 2.7
Substance: FLAG-parkin (from UniProt O60260 1-465) (enzyme)
